Kd data for one molecule are collected here from publication PMC12507909, “The reticulocyte restriction: invasion ligand RBP1a of Plasmodium vivax targets human TfR1, prohibitin-2, and basigin” (Frontiers in Cellular and Infection Microbiology, 2025).

The target of this experiment is T1, transferrin receptor protein 1 (TfR1), recombinant extracellular domain Cys89-Phe760 (human, UniProt P02786 89-760).
T1 construct: Human transferrin receptor protein 1 (TfR1/CD71), extracellular domain, Cys89-Phe760; also called CD71; the 89–760 domain of TfR1; source: bought: SinoBiological
Nature of the experiment: ELISA; Maxisorp plates coated with 5 μg/mL of each receptor candidate; serial dilutions of PvRBP1a_(158-650)LTID and LTID (48,000 pM to 187.5 pM and 4,000 pM to 1.28 pM) in blocking solution, 16 hours at 4°C; detected with a TurboID-specific antibody; one-site binding saturation model; triplicates. The following applies: both partners purified. In general terms: In an ELISA, binding on a coated surface is turned into a signal by an enzyme label.

T1 sequence (P02786 89-760): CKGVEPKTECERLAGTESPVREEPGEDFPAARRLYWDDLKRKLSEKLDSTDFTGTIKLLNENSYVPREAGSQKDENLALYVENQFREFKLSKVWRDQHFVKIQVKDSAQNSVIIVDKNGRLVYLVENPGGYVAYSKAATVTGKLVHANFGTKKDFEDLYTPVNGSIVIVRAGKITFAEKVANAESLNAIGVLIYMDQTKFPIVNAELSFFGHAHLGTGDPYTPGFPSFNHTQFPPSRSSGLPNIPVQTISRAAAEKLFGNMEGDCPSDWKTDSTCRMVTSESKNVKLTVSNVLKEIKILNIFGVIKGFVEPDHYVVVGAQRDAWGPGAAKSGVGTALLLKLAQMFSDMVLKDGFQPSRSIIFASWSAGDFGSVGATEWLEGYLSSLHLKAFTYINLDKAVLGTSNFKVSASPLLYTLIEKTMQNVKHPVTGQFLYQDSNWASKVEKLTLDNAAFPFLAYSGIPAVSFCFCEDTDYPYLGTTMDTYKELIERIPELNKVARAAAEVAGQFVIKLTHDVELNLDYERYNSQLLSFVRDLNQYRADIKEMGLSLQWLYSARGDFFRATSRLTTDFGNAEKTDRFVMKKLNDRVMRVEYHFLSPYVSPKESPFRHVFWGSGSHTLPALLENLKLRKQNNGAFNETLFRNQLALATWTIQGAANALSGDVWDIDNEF

B1: PvRBP1a_(158-650)LTID fusion protein (domain or fragment)
chain: YNSIVDMSEKLKENDKYNLVFDMEIDFVDLQFFNLILELIPKDSQYHTYYEETLKQQVTEYTNSLKTLMDSCISEKDQMIILEYEINYAKRKSIETETLGDKETKLSAVSQAYAKHLESYKGVLKPKLNDIKNNAFSVLKDSYCKDNCGEYVQKYNTMRKNFISSSDQYKMEAYMYIPKSINDYTVLDKILSESNELGIDIQETVNSLKLLGEEISEVSHLYVINSTLIDDAAKKLESINEEDESAEIDLQKFEDNSKALANNYCIFQYIKTLNEPIKKAYESKVIKSNELLSTIIDTLGKSATALQESTFNQEECNKIKTEAEKVKDDAEDIYEKNEQIYYEIPESEDETIADKINDLQYLIDQMNEYKDEIVNNSEFISNRYKNIYENLKETYETELNDIGQLENDTSKVNFYLMQIRKINTEKTKIDESLQTVEKFYKGILDLKEKIYELKIEFEKSVTEINRLQDGESARDLHEEQIKEILDKMAKKVH
notes: Synthetic gene optimised for E. coli, in pET-28a(+) between NcoI and XhoI; About 94 kDa; Details of expression and purification are in the Supplementary Data; also called PvRBP1a (158–650)-TurboID; PvRBP1a_(158-650)LITD
Take B1: the Kd (usually the equilibrium constant for the complex coming apart) was 1.15 nM.
